Data on one protein can be found in patent publication US20130108608.

The target of this data set is T1, recombinant human full-length TrpRS with C-terminal His6 tag.
T1 chain: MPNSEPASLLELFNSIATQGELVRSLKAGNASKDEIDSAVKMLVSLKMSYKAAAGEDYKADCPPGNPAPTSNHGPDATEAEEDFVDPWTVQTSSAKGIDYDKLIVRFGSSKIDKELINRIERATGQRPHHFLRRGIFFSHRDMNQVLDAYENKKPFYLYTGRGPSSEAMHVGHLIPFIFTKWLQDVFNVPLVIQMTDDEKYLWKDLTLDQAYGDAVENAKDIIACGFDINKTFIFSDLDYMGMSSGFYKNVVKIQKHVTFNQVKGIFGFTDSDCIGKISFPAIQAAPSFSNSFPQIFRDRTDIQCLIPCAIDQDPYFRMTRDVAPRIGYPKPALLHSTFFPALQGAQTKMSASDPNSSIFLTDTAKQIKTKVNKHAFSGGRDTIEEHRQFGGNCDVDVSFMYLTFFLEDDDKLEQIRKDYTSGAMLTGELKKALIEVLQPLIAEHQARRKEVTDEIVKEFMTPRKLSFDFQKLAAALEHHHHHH

B1: PMN elastase (protein)
chain: IVGGRRARPHAWPFMVSLQLRGGHFCGATLIAPNFVMSAAHCVANVNVRAVRVVLGAHNLSRREPTRQVFAVQRIFENGYDPVNLLNDIVILQLNGSATINANVQVAQLPAQGRRLGNGVQCLAMGWGLLGRNRGIASVLQELNVTVVTSLCRRSNVCTLVRGRQAGVCFGDSGSPLVCNGLIHGIASFVRGGCASGLYPDAFAPVAQFVNWIDSIIQ
Consider B1, for which the “cleavage of TrpRS by the protease, fragments on 12.5% SDS-PAGE” value is “PMN elastase cleavage of a full-length TrpRS of about 53 kDa generated a major fragment of about 46 kDa (SEQ ID NO: 5, T1, having the C-terminal histidine tag, or an SY variant thereof) and a minor fragment of about 43.5 kDa”.
